This is an account of results in PMC5647336.

The experiment deals with Hp-chimMotB (soluble chimeric variant of Helicobacter pylori MotB with the transmembrane helix replaced by a GCN4-derived leucine zipper) (S. cerevisiae | Helicobacter pylori) (UniProt P03069). As to the kind of experiment: SAXS; Hp-chimMotB at 0.05, 0.11 and 0.25 mg/mL in 100 mM sodium acetate pH 4.6, 200 mM NaCl, room temperature; MW from I(0) (Guinier, P(r)) and Porod volume compared with the theoretical dimer mass.

A word on the stoichiometry N: it is the number of molecules, sites or subunits per partner or assembly. “Hp-chimMotB (soluble chimeric variant of Helicobacter pylori MotB with the transmembrane helix replaced by a GCN4-derived leucine zipper) (from UniProt P03069 249-279; P56427 41-257)” registered a stoichiometry N of 2.
